Data as given in US20240010721A1 (HARBOUR BIOMED SHANGHAI, published 2024).

Legend:
[1] = target: T1, human ROR1 (hROR1) on cells (human, UniProt Q01973 30-937); experiment: FACS, A549 cells
T1 construct: whole, on cells; the cell line is named under assay; also called HEK293T-hROR1; 293T-hROR1
Method: (§1) The binding properties were characterized by FACS. The recombinant antibodies obtained above were serially diluted to 9 different concentrations and incubated for 1 h, and then determined for the binding ability with HEK293T-hROR1, CHO-K1-cynoROR1 and A549 cell lines (endogenously expressing ROR1), respectively. The secondary antibody was then incubated for 1 h. The results are shown in FIG. 4-6 and Table 7-2 below.

[2] = target: T1, human ROR1 (hROR1) on cells; experiment: FACS, HEK293T-hROR1 cells
Method: as §1

[3] = target: T2, cynomolgus ROR1 (cynoROR1) on CHO-K1 cells (cynomolgus, UniProt A0A2K5WTX7 30-937); experiment: FACS, CHO-K1-cynoROR1 cells
T2 construct: whole, on cells; also called CHO-K1-cynoROR1; CHO-K1-cyROR1
Method: as §1

[4] = target: T3, hROR2ECD-his (human, UniProt Q01974 34-403); experiment: ELISA, plate coated with hROR2 ECD-his
T3 construct: extracellular domain; bought, Acrobiosystems R02-H52E5; also called huROR2-his
Method: (§2) Screening by ELISA assay: 96-well plates (Corning 9018) were coated with 1 μg/mL hROR1 ECD-his/hROR2 ECD-his/mROR1 ECD-his proteins prepared with PBS in Example 1a above and incubated at 4° C. overnight. The liquid was then discarded, and the plates were washed 3 times with PBST, blocked with 5% milk for 2 h at room temperature, and washed 3 times with PBST. The taken supernatant was added at 100 μL/well, and the plates were incubated at room temperature for 1 h, followed by washing 3 times with PBST. 100 μL/well of secondary antibody (Sigma, Cat#: A8592) was added, the plates were incubated at room temperature for 1 h, and then washed. TMB was then added to the plates at 100 μL/well and incubated for 15 min at room temperature. Thereafter, the reaction was terminated and data were read.
(§3) a. Results of ELISA assay (the ELISA assay was performed according to the same procedures as in Example 2c, except that the added samples were recombinant antibodies and the secondary antibody was a-Fc (Genscript, Cat#: A01854))
The corresponding values in the table are the measured median fluorescence intensity (MFI).

[5] = target: T4, Human ROR1-ECD-his (human, UniProt Q01973 30-406); experiment: ELISA, plate coated with hROR1 ECD-his
T4 construct: extracellular domain; bought, Acrobiosystems RO1-H522y; also called hROR1-ECD-his; hROR1 ECD-his
Method: as §2, §3

[6] = target: T3, hROR2ECD-his; experiment: ELISA, plate coated with hROR2 ECD-his; remark: listed apart in the source
Method: as §2, §3

[7] = target: ROR1 (antigen of the KD determination and of the Octet dissociation measurement) (UniProt Q01973 30-403, limits assumed); experiment: method not stated (conventional procedures)
[8] = target: T1, human ROR1 (hROR1) on cells; experiment: FACS, HEK293T-hROR1 cells; cytometer saturated
Method: as §1

T4 sequence (Q01973 30-406): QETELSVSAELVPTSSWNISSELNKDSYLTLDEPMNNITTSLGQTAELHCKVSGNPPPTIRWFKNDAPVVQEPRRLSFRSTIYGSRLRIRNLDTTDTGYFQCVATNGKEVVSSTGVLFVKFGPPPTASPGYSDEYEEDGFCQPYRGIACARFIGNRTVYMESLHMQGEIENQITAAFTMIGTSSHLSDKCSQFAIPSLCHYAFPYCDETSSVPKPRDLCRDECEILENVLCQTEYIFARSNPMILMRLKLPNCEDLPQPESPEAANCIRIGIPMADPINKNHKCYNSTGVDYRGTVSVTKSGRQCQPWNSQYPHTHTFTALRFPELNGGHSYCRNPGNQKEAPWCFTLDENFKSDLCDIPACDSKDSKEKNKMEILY
T1 sequence (Q01973 30-937): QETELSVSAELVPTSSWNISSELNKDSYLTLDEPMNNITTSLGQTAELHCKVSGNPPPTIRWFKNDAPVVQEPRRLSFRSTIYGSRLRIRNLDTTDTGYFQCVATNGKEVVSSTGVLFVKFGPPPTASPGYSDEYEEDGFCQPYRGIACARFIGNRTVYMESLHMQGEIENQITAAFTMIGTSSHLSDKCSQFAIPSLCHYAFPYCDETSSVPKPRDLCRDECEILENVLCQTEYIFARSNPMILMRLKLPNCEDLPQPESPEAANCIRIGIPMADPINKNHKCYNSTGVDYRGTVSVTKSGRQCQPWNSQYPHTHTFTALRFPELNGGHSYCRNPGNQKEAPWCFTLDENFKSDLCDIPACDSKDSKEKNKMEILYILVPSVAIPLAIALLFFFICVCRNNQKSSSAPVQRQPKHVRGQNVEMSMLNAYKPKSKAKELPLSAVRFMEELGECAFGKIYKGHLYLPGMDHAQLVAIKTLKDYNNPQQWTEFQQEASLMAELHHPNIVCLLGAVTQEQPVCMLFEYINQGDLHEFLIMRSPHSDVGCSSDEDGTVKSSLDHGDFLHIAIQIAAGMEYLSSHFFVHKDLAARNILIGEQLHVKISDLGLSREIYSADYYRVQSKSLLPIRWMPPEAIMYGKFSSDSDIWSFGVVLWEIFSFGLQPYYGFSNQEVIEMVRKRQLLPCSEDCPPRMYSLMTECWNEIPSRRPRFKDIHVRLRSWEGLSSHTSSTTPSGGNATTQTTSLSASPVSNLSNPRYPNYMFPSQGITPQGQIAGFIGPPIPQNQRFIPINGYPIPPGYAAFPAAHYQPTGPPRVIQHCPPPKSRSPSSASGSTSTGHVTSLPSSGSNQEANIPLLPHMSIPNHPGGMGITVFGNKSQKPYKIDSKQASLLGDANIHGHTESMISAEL
Chain of ROR1 (antigen of the KD determination and of the Octet dissociation measurement) (Q01973 30-403 limits assumed): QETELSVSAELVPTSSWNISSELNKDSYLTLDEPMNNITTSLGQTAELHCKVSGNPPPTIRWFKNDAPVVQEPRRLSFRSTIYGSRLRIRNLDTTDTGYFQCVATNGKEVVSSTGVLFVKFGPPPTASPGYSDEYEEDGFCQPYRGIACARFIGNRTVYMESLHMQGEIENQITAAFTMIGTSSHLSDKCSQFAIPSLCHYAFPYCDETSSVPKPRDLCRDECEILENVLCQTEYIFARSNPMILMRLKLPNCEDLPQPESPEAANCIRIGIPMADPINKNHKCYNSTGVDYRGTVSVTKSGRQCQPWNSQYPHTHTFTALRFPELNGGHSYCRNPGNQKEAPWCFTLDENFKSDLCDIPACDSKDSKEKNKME
T3 sequence (Q01974 34-403): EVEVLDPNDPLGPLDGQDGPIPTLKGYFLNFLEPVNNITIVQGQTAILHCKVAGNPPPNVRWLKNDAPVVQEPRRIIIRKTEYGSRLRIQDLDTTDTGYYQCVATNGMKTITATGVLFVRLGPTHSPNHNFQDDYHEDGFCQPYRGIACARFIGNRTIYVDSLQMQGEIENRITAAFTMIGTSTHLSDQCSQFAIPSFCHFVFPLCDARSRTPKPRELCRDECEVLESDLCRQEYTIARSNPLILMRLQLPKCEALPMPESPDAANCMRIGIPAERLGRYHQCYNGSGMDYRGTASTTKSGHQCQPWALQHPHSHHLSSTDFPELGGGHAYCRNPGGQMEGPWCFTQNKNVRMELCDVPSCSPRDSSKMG

MAX(MFI) [1] [MFI] | fold lower EC50 than reference PR000374 [2] [fold] | MAX(MFI) [3] [MFI] | binding result [4] | ELISA signal (called MFI) [5] | ELISA signal (called MFI) [6] | Kd [7] [nM] | koff [7] [s⁻¹] | kon [7] [M⁻¹ s⁻¹] | MAX(MFI) [8] [MFI] | Binder
4050 | 10 | 25000 | no binding | 2.44 | 0.0315 | 0.804 | 0.000248 | 309000 | 262000 | PR001360 (antibody, human IgG1, kappa, V domains shown, fully human IgG1, kappa) VH: QVQLVESGGGVVQPGRSLRLSCAASGFTFSSYGMHWVRQAPGKGLEWVAVIWYDGSDKDSVDSVKGRFTISRDDSKNTLYLQMNSLRAEDTAVYYCAREQARSFDLWGRGTLVTVSS VL: DIQMTQSPSTLSASVGDRVTITCRASQTINNWLAWYQQKPGKAPKLLIYKASSLESGVPSRFSGSGSGTEFTLTISSLQPDDFATYYCQQYNIYSPMYTFGQGTKVEIKR
4520 | 10 | 27200 | no binding | 2.28 | 0.028 | 1.83 | 0.00108 | 590000 | 262000 | PR001361 (antibody, V domains shown, fully human IgG1, kappa) VH: QVQLVQSGGGVVQPGRSLRLSCTASGFTFSRYGMLWVRQAPGKGLEWVAVAWYDGVSEDYADSVKGRFTISRDNSMNTLSLQMNSLRAEDTAVYYCAREQARSFDLWGRGTLVTVSS VL: DIQLTQSPSTLSASVGDRVTITCRASQSINSWLAWYQQKPGKAPKLLIYKASSLESGVPSRFSGSGSGTEFTLTISSLQPDDFATYYCQQYKSYSPMYTFGQGTKVDIKR
4520 | 10 | 30700 | no binding | 2.48 | 0.0335 | 1.51 | 0.000476 | 316000 | 262000 | PR001352 (antibody, human IgG1, kappa, V domains shown, fully human IgG1, kappa) VH: EVQLLESGGGVVQPGRSLRLSCAASGFTFSSYGMHWVRQAPGKGLEWVAVKWYDGISQNFADSVKGRFTISRDNSKNTLYLQMNSLRAEDTAVYYCARDLARSFDLWGRGTLVTVSS VL: DIQLTQSPSSLSASVGDRVTITCRASQTINNWLAWYQQKPGKAPKLLIYKASSLESGVPSRFSGSGSGTEFTLTISSLQPDDFATYYCQQYNSYSPMYTFGQGTKVEIKR
3920 | 10 | 26000 | no binding | 2.53 | 0.0335 | 3.97 | 0.00113 | 285000 | 262000 | PR001370 (antibody, V domains shown, fully human IgG1, kappa) VH: EVQLLESGGGVVQPGRSLRLSCAASGFTFSSYGMHWVRQAPGKGLEWVAVKWYDGISQNFADSVKGRFTISRDNSKNTLYLQMNSLRAEDTAVYYCARDLARSFDLWGRGTLVTVSS VL: DIVMTQSPSTLSASVGDRVTITCRASQSINNWLAWYQQKPGKAPKLLIYKASSLESGVPSRFSGSGSGTEFTLTISSLQPDDFATYYCQQYNSYSPMYTFGQGTKVDIKR
4970 | 10 | 27300 | no binding | 2.47 | 0.049 | 1.07 | 0.000518 | 482000 | 262000 | PR001358 (antibody, human IgG1, kappa, V domains shown, fully human IgG1, kappa) VH: QVQLVQSGGGVVQPGRSLRLSCAASGFTFSSYAMHWVRQAPGKGLEWVAIMWYDGSNTDYADSVKGRFTISRDTSKNTLFLQMNSLRAEDTAVYYCAREQARSFDLWGRGTLVTVSS VL: DIVMTQSPSTLSASVGDRVTITCRASQSINSWLAWYQQKPGKAPKLLIYKASNLESGVPSRFSGSGSGTEFTLTISSLQPDDFATYYCQQYKSYSPMYTFGQGTKVDIKR
4750 | 10 | 23300 | no binding | 2.24 | 0.0305 | 1.67 | 0.00075 | 448000 | 262000 | PR001366 (antibody, V domains shown, fully human IgG1, kappa) VH: QVQLVESGGGVVQPGRSLRLSCTASGFTFSSYGMHWVRQAPGKGLEWVAVKWYDGISQNFADSVKGRFTISRDNSKNTLYLQMNSLRAEDTAVYYCARDLARSFDIWGRGTLVTVSS VL: DIQLTQSPSTLSASVGDRVTITCRASQSINSWLAWYQQKPGKAPKLLIYKASSLESGVPSRFSGSGSGTEFTLTISSLQPDDFATYYCQQYKSYSPMYTFGQGTKVDIKR
4210 | 10 | 27800 | no binding | 2.51 | 0.0255 | 2.16 | 0.000867 | 402000 | 262000 | PR001368 (antibody, V domains shown, fully human IgG1, kappa) VH: QVQLVESGGGVVQPGRSLRLSCAASGFTFSTYGMHWVRQAPGKGLEWVAVIWYDGSDTDYADSVKGRFTISRDTSKNTLYLQMNSLRAEDTAVYYCAREQARSFDLWGRGTLVTVSS VL: DIVMTQSPSTLSASVGDRVTITCRASQSINSWLAWYQQKPGKAPKLLIYKASSLESGVPSRFSGSGSGTEFTLTISSLQPDDFATYYCQQYKSYSPMYTFGQGTKVEIKR
3700 | 10 | 17200 | no binding | 2.45 | 0.0305 | 2.9 | 0.00101 | 348000 | 262000 | PR001363 (antibody, human IgG1, kappa, V domains shown, fully human IgG1, kappa) VH: QVQLVESGGGVVQPGRSLRLSCAASGFSFSSYAMHWVRQAPGRGLEWVAVIWYDGGDEDSIDSVKGRFTISRDDSKNTLYLQMNSLRAEDTAVYYCAREQARSFDLWGRGTLVTVSS VL: DVVMTQSPSTLSASVGDRVTITCRASQTINNWLAWYQQKPGKAPKLLIYKASSLESGVPSRFSGSGSGTEFTLTISSLQPDDFATYYCQQYNSYSPMYTFGQGTKVEIKR
4110 | 10 | 28400 | no binding | 2.38 | 0.0235 | 1.76 | 0.000525 | 298000 | 262000 | PR001371 (antibody, human IgG1, kappa, V domains shown, fully human IgG1, kappa) VH: QVQLVESGGGVVQPGRSLRLSCAASGFTFSSYGMLWVRQAPGKGLEWVAVAWYDGVSEDYADSVKGRFTISRDNSMNTLSLQMNSLRAEDTAVYYCAREQARSFDLWGRGTLVTVSS VL: DIQLTQSPSSLSASVGDRVTITCRASQTINNWLAWYQQKPGKAPKLLIYKASSLESGVPSRFSGSGSGTEFTLTISSLQPDDFATYYCQQYNSYSPMYTFGQGTKVEIKR
3450 | 10 | 21200 | no binding | 2.38 | 0.0235 | 3.06 | 0.00104 | 341000 | 262000 | PR001367 (antibody, human IgG1, kappa, V domains shown, fully human IgG1, kappa) VH: QVQLVESGGGVVQPGRSLRLSCAASGFSFSSYAMHWVRQAPGRGLEWVAVIWYDGGDEDYIDSVKGRFTISRDDSKNTLYLQMNSLRAEDTAVYYCAREQARSFDLWGRGTLVTVSS VL: DVVMTQSPSTLSASVGDRVTITCRASQTINNWLAWYQQKPGKAPKLLIYKASSLESGVPSRFSGSGSGTEFTLTISSLQPDDFATYYCQQYNSYSPMYTFGQGTKVEIKR
4400 | 10 | 22100 | no binding | 2.35 | 0.0285 | 0.237 | 7.72e-05 | 325000 | 262000 | PR001365 (antibody, human IgG1, kappa, V domains shown, fully human IgG1, kappa) VH: QVQLVQSGGGVVQPGRSLRLSCAASGFTFSSYGMHWVRQAPGKGLEWVAVIWYDGSDKDYADSVKGRFTISRDTSKNTLYLQMNSLRAEDTAVYYCAREQARSFDLWGRGTLVTVSS VL: DIQMTQSPYSLSASVGDRVTITCRASQTINNWLAWYQQKPGKAPKLLIYKASSLESGVPSRFSGSGSGTEFTLTISSLQPDDFATYYCQQYKLYSPMYTFGQGTKVEIKR
